Measurements: patent US20230174659A1 (GENERAL HOSPITAL, published 2023)

What was measured:
[1] = molecular target: T1, Amino acid residues 26-45 of human TNFR2 (human); test: ELISA on TNFR2 peptide, antibody alone
T1 sequence (peptide): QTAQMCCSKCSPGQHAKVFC

[2] = molecular target: T2, Amino acid residues 34-53 of human TNFR2 (human); test: ELISA on TNFR2 peptide, antibody alone
T2 sequence (peptide): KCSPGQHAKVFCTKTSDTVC

[3] = molecular target: T3, Amino acid residues 98-117 of human TNFR2 (human); test: ELISA on TNFR2 peptide, antibody alone
T3 sequence (peptide): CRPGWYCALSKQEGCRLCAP

[4] = molecular target: T1, Amino acid residues 26-45 of human TNFR2 (human); test: ELISA on plate-coated linear peptide S03933
[5] = molecular target: T4, Amino acid residues 108-127 of human TNFR2 (human); test: ELISA on plate-coated linear peptide S03935
T4 sequence (peptide): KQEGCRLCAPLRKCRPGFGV

[6] = molecular target: T3, Amino acid residues 98-117 of human TNFR2 (human); test: ELISA on plate-coated linear peptide S04072
[7] = molecular target: T5, Amino acid residues 106-125 of human TNFR2 (human); test: ELISA on plate-coated linear peptide S04073
T5 sequence (peptide): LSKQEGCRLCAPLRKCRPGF

[8] = molecular target: T6, Amino acid residues 58-77 of human TNFR2 (human); test: ELISA on TNFR2 peptide, antibody alone
T6 peptide: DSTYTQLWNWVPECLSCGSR
Experimental: (§1) ELISA was also used to determine linear epitopes present on the extracellular surface of TNFR2. Linear peptides corresponding to various regions within the TNFR2 primary sequence were purchased from GenScript (Piscataway, NJ), diluted in coating buffer and placed on Immulon 4HBX Flat Bottom Microtiter Plates (Thermo Scientific) at a concentration of 1 µg/well. Primary TNFR2 agonistic antibodies (0.1 µg/well) were incubated with substrates. Secondary antibodies against rodent IgG were used to detect the primary antibodies. Absorbance was measured using the SPECTRAMAX^{®} 190 Absorbance Plate Reader and analyzed with SoftMax Pro 6.3 (Molecular Devices).

[9] = molecular target: T7, Amino acid residues 170-189 of human TNFR2 (human); test: ELISA on TNFR2 peptide, antibody alone
T7 peptide: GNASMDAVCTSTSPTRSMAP
Experimental: as §1

[10] = molecular target: T8, Amino acid residues 9-28 of human TNFR2 (human); test: ELISA on TNFR2 peptide, antibody alone
T8 peptide: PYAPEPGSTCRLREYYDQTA
Experimental: as §1

[11] = molecular target: T9, Amino acid residues 17-36 of human TNFR2 (human); test: ELISA on TNFR2 peptide, antibody alone
T9 peptide: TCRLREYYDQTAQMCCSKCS
Experimental: as §1

[12] = molecular target: T10, Amino acid residues 42-61 of human TNFR2 (human); test: ELISA on TNFR2 peptide, antibody alone
T10 peptide: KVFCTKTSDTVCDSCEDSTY
Experimental: as §1

[13] = molecular target: T11, Amino acid residues 50-69 of human TNFR2 (human); test: ELISA on TNFR2 peptide, antibody alone
T11 peptide: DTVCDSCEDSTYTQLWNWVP
Experimental: as §1

[14] = molecular target: T12, Amino acid residues 1-20 of human TNFR2 (human); test: ELISA on plate-coated linear peptide S04062
T12 peptide: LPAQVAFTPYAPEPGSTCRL
Experimental: as §1

[15] = molecular target: T13, Amino acid residues 122-141 of human TNFR2 (human); test: ELISA on plate-coated linear peptide S04075
T13 peptide: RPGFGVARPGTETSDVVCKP
Experimental: as §1

[16] = molecular target: T14, Amino acid residues 138-157 of human TNFR2 (human); test: ELISA on plate-coated linear peptide S04077
T14 peptide: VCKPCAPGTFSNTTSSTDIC
Experimental: as §1

[17] = molecular target: T15, Amino acid residues 162-181 of human TNFR2 (human); test: ELISA on plate-coated linear peptide S04080
T15 peptide: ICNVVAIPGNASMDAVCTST
Experimental: as §1

[18] = molecular target: T5, Amino acid residues 106-125 of human TNFR2 (human); test: ELISA, immobilised TNFR2 peptide fragments, TNFRAG1 as primary antibody
[19] = molecular target: T4, Amino acid residues 108-127 of human TNFR2 (human); test: as above
[20] = molecular target: T1, Amino acid residues 26-45 of human TNFR2 (human); test: as above
[21] = molecular target: T2, Amino acid residues 34-53 of human TNFR2 (human); test: as above
[22] = molecular target: T16, Amino acid residues 66-85 of human TNFR2 (human); test: as above
T16 sequence (peptide): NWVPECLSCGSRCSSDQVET

[23] = molecular target: T17, Amino acid residues 74-93 of human TNFR2 (human); test: as above
T17 sequence (peptide): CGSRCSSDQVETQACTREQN

[24] = molecular target: T18, Amino acid residues 82-101 of human TNFR2 (human); test: as above
T18 sequence (peptide): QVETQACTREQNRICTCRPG

[25] = molecular target: T3, Amino acid residues 98-117 of human TNFR2 (human); test: as above
[26] = molecular target: T1, Amino acid residues 26-45 of human TNFR2 (human); test: ELISA on plate-coated linear peptide S03933; Affinity cell of this row is '1+'
[27] = molecular target: T3, Amino acid residues 98-117 of human TNFR2 (human); test: ELISA on plate-coated linear peptide S04072; Affinity cell of this row is '1+'
[28] = molecular target: T4, Amino acid residues 108-127 of human TNFR2 (human); test: ELISA on plate-coated linear peptide S03935; Affinity cell of this row is '2+-'
[29] = molecular target: T5, Amino acid residues 106-125 of human TNFR2 (human); test: ELISA on plate-coated linear peptide S04073; Affinity cell of this row is '2+-'

B1: agonistic TNFR2 antibody TNFRAG1 (antibody, V domains shown)
VH: EVQLQQFGAELVKPGASVKISCKASGYTFTDYNIDWVKQSHGKSLEWIGDINPNYDSTSYSQKFRGKATLTVDKSSSTAYMELRSLTSEDTAVYYCARGNSWYFDVWGAGTTVTVSS
VL: QIVLTQSPALMSASPGEKVTMTCSASSSVRYMYWYQQKPRSSPKPWIYLTSNLASGVPARFSGSGSGTSYSLTISSMEAEDAATYYCQQWSSNPLTFGAGTKLELK
notes: It was detected with secondary antibodies against rodent IgG; also called monoclonal TNFR2 antibody TNFRAG1; TNFR2 agonist antibody
What does the source list for B1?
Affinity [1]: 1; Reading [1]: 0.1; Affinity [2]: 1; Affinity [3]: 1; Reading [3]: 2; Affinity [4]: 1; Affinity [5]: 2; Affinity [6]: 1; Affinity [7]: 2; binding result [8]: no binding; binding result [9]: no binding; binding result [10]: no binding; binding result [11]: no binding; binding result [12]: no binding; binding result [13]: no binding; binding result [14]: no binding; binding result [15]: no binding; binding result [16]: no binding; binding result [17]: no binding; Affinity Score (affinity score (0 lowest to 4 highest)) [18]: 2; Affinity Score (affinity score (0 lowest to 4 highest)) [19]: 2; Affinity Score (affinity score (0 lowest to 4 highest)) [20]: 1; Affinity Score (affinity score (0 lowest to 4 highest)) [21]: 0; Affinity Score (affinity score (0 lowest to 4 highest)) [22]: 0; Affinity Score (affinity score (0 lowest to 4 highest)) [23]: 0; Affinity Score (affinity score (0 lowest to 4 highest)) [24]: 0; Affinity Score (affinity score (0 lowest to 4 highest)) [25]: 1; Reading [26]: 0; Reading [27]: 0; Reading [28]: 0; Reading [29]: 0
